Test: yeast display, Sf9 membrane polyspecificity reagent, FACS + sequencing; frameworks hold sequencing errors
How it was run: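 Synthetic nanobody libraries on Saccharomyces cerevisiae BJ5465 were galactose-induced for 36–48 hours, stained 1 hour at 4 °C with 10% biotinylated, detergent-solubilized Sf9 membrane reagent and enriched on streptavidin microbeads. FACS then separated cells into low and high (top ~1%) gates by anti-HA (expression) and streptavidin (reagent binding) fluorescence. Genes were colony-PCR amplified, MiSeq 2 × 250 sequenced and CDR-length filtered. A clone's polyreactivity label is that of its gate of origin.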

Row | Sequence | polyreactivity (PSR sort gate)
1 | QVQLVESGGGLVQAGGSLRLSCADSGRIYGIYAMGWYRQAPGKERELVAAITNIGGRTYYADSVKGRFTISRDNAKNTVYLQMNSLKPEDTAVYYCAKRWRRRFVDVWSLYDYWGQGTQVTVSS | low polyreactivity
2 | QVQLVESGGGLVQAGGSLRLSCADSGRTFGPNAMGWYRQAPGKERELVAAITGGGSTYYADSVKGRFTISRDNAKNTVYLQMNSLKPEDTAVYYCAAVWTYWYYGDDYWGQGTQVTVSS | low polyreactivity
3 | QVQLVESGGGLVQAGGSLRLSCADSGRTFVGNAMGWYRQAPGKGWEFVAAISRSGGSTNYADSVKGRFTISRDNAKNTVYLQMKSLKPEDTAVYYCAARDRFGGIRRYIYWGQGTQVTVSS | high polyreactivity
4 | QVQLVESGGGLVQAGGSLRLSCADSGRTFYHYAMGWYRQAPGKERELVATITSSGGNTYYADSVKGRFTISRDNAKNTVYLQINSLKPEDTAVYYCAADWFVYQYSFGSSEYYYWGQGTQVTVSS | low polyreactivity
5 | QVQLVESGGGLVQAGGSLRLSCADSGRTQWSYAIGWYRQAPGKERELVATISYSGGSTYYADSVKGRFTISRDNAKNTVYLQMNSLKPEATAVYYCNAVARWYVLQVYEYDYWGEGTQVTVSS | low polyreactivity
6 | QVQLVESGGGLVQAGGSLRLSCADSGRTSYYYVMGWYRQAPGKERELVAAIRSRGGSTYYADSVKGRFTISRDNAKNTVYLQMNSLKPEDTAVYYCAARYGFWSYDFGYWGLGTQVTVSS | high polyreactivity
7 | QVQLVESGGGLVQAGGSLRLSCADSGSIFIANAMGWYRPAPGKERELVAAIDSGGSTNYADSVKGRFTSSRDNAKNTVYLQMNSLKPEDTAVYYCAADGTLTAPGGDYWGQGTQVTVSS | high polyreactivity
8 | QVQLVESGGGLVQAGGSLRLSCADSGSIFKYYAMGWYRQAPGKERELDASISWSGGTTYYADSVKGRFTISRDNAKNTVYLQMNSLKPEDTAVYYCNARWWVRYSNKYDYWGQGTQVTVSS | high polyreactivity
9 | QVQLVESGGGLVQAGGSLRLSCADSGSIFRRNAMGWYRQAPGKERELVAGIRGSGGSTYYADSVKGRFTISRDNAKNTVYLQMNSLKPEDTAVYYCAARRSYYHGSYDYWGQGTQVTVSS | high polyreactivity
10 | QVQLVESGGGLVQAGGSLRLSCADSGSIFTYTMGWYRQAPGKERELVAVISRSGGRTYYADSVKGRFTISRDNAKNTVYLQMNSLKPEDTAVYYCATDGHNGYYGRYDYWGQGTQVTVSS | high polyreactivity
11 | QVQLVESGGGLVQAGGSLRLSCADSGSIGYYAMGWYRQAPGKERELVAVISRSGTGTYYADSVKGRFTISRDNANNTVYLQMNSLKPEDTAVYYCNAETYTYRYENDYWGQGTQVTVSS | high polyreactivity
12 | QVQLVESGGGLVQAGGSLRLSCADSGSIIYYAMGWNRQAPGKEREFVAAITKSGGSTYYADSVKGRFTISRDNAKNTVYLQMNSLKPEDTAVYYCAARGTWAGFYYWGQGTQVTVSS | high polyreactivity
13 | QVQLVESGGGLVQAGGSLRLSCADSGSIVLVNAMGWSRQAPGKEREMVAAITYGGDSTYYADSVKGRFTISRDNAKNSVYFQINSLKREDTAVYYFAADAWVGWHDEYDYWGQGTQVTVSS | low polyreactivity
14 | QVQLVESGGGLVQAGGSLRLSCADSGSIYHNYDMGWYRQAPGKEKEFVADISRGGDTIYADSVKGRFSISRDNAKNTVYLQMNSLKPEDTAVYYCNATYWILDSPWWRETFDYWGQGTQVTVSS | low polyreactivity
15 | QVQLVESGGGLVQAGGSLRLSCADSGSTFGYYAMGWYRQAPGKERELVAGISSGGTTKYADSVKGRFTISRDNAKNTVYLQMNSLKPVDTAVYYCAARFRRTRVTYYYWGQGTQVTVSS | high polyreactivity
16 | QVQLVESGGGLVQAGGSLRLSCADSGSTFKGYTMGWYRQAPGKERELVAAIRSRSGNTYYADSVKGRFTISRDNAKNHVYLLMNSLKPEETAVYYCAAVQPYVDYDSWGQGTQVTVSS | high polyreactivity
17 | QVQLVESGGGLVQAGGSLRLSCADSGSTFKYYAMGWYRQAPGKEREFVASINWSGVSTYYADSVKGRFTISRDNPKNTVYLQMNSLKPEDTSVYYCAARVRGKYDYWGQGTQVTVSS | high polyreactivity
18 | QVQLVESGGGLVQAGGSLRLSCADSGSTFRIFAMGWYRQAPGKERELVAAITGGGTHYADSVKGRFTISRDNAKNTVYLQMNSLTPEDTAVYYCAANRSKLYRYAMGYWGQGTQVTVSS | high polyreactivity
19 | QVQLVESGGGLVQAGGSLRLSCADSGSTFSYNAMGWYRQAPGKERELVATITYSGTSTHYADSVKGRFTISRDNAKNTVYLQMNSLKPEDTAVYYCNAYSKGWGLPDDYWGQGTLVTVSS | low polyreactivity
20 | QVQLVESGGGLVQAGGSLRLSCADSGSTFWYYVMGWYRQAPGKERELVAVINTRGGSTYYADSVKGRFTISRDNAKNTVYLQMNSLKPEDTAVYYCNARKVKRGKYNYWGQGTQVTVSS | high polyreactivity
21 | QVQLVESGGGLVQAGGSLRLSCADSGSTFYPYAMGWYRQAPGKEREFVAAISRGGTTTYYADSVKGRFTISRDNAKNTVYLQMNSLKPEDTAVYYCAARYVSVYRWTYDYWGQGTQVTVSS | high polyreactivity
22 | QVQLVESGGGLVQAGGSLRLSCADSGSTFYYYAMGWYRQAPGKERELVAAISTSGGSTYYADSVKGRFTISRDNAKNTVYFQMNSLKPEDTAVYYCAARYRRGMGYWGQGTQVTVSS | high polyreactivity

Row | Sequence | polyreactivity (PSR sort gate)
23 | QVQLVESGGGLVQAGGSLRLSCADSGSTIYPYAMGWYRQAPGKERELVAAINRSGGRTYYADSVKGRFTISRDNAKNTVYLQMISLKPEDTAVYYCAARVRSRNSYDYWGQGTQVTVSS | low polyreactivity
24 | QVQLVESGGGLVQAGGSLRLSCADSGSTLIGNAMGWYRQAPGKERELVAAISSGGRTYYADSVKGRFTISRDNAKNTVYLQMNSLKPEDTAVYYCAADTVGTNVVSPELDYWGQGTQVTVSS | low polyreactivity
25 | QVQLVESGGGLVQAGGSLRLSCADSGSTYGGYAMGWYRQAPGKERELVAAISQSGGRTYYADSVKGRFTISRDNAKITVYFQMNSLKPEDTAVYYCAAYRTGYGRFTLDYWGQGSQVTVSS | high polyreactivity
26 | QVQLVESGGGLVQAGGSLRLSCADSGYTFLDYAMGWYRQAPGKERELVAAINSGGSTYYADSVKGRFTISRDNAKNTVYLQMNSLKPEDTAVYYCAREDYVSYRLLYSLFDYWGQGTQVTVSS | low polyreactivity
27 | QVQLVESGGGLVQAGGSLRLSCADSGYTFYFYAMGWYRQAPGKESELVAAITGGGTTSYADSVKGRFTISRDNAKNTVYLEMNSLKPEDTAFYYCAAYAYGVWQYQYGGNYWGQGTQVTVSS | low polyreactivity
28 | QVQLVESGGGLVQAGGSLRLSCADSVFTFGYYAMGWYRQAPGKERELVAAISRNGGRTYYADSVKGRFTISRDNAKNNVYLQMNSLKTVYTAVHYCNALLFFLNRVWSFDYWGQGTQVTVSS | high polyreactivity
29 | QVQLVESGGGLVQAGGSLRLSCADSVSIVGYYTMGWYRQAPWKARELVSGITSTGNTNYADSVKGRFTISRDNAKNTVYLHMNSLKPEHTAVYYCAADSESTWDFGWELEVGYDYWGQGTQVNVSS | low polyreactivity
30 | QVQLVESGGGLVQAGGSLRLSCAEYAMGCYRQAPGKERELVATITARGGSTYADSVKGRFTISRDNAKNTVYLQMNSLKPEDTAVYYCNADYGLFYRATFYGYDYWGQCTQVTVSS | low polyreactivity
31 | QVQLVESGGGLVQAGGSLRLSCAGLRIYLPGYAKGWYIQAPGKERELVAVISGSGSGTYYADSVKGRFTISLDNAKNTVYLQMNSLKPEDTAVYYCAADAGSNEAYFRRMDYWGQGTQVTVSS | high polyreactivity
32 | QVQLVESGGGLVQAGGSLRLSCAGSGFTFQYYAMGWYRQAPGKERELVAAMSWGGGSTYYADSVKGRFTISRDNAKKTVYLQMNSLKPEDTAVYYCNAYDYLSAGDDYWGQGTQVTVSS | low polyreactivity
33 | QVQLVESGGGLVQAGGSLRLSCAGSGFTLDGYVMGWYRQAPGQEREFVAAIRSSGGSTRYADSVKGRFTISRDNAKNTVYLQMNSLKPEDTALYYSAAVAYYWGYEQWYDYWGQGTQVTVSS | high polyreactivity
34 | QVQLVESGGGLVQAGGSLRLSCAGSGITFYWYAMGWDRQAPGKERELVAGISQSGSRTYYADSVKGRFTISRDNAKNTVYLQMNSLKPEDTAVYYCAARVRWSPTRTFEYWGQGTQVTVSS | high polyreactivity
35 | QVQLVESGGGLVQAGGSLRLSCAGSGRTFWANTMGWYIQAPGKEREFVAAISGRDVSTYYADSVKGRFTISRDNAKNTVFLQMNSLKPEDTAVYYCAAQWQYLGHMGYWGQGTQVTVSS | low polyreactivity
36 | QVQLVESGGGLVQAGGSLRLSCAGSGSISYFNAMGWYRQAPGKERELVAAISYSGGSTYYADSVKGRFTISRDNAKNTVYLQMNSLKPEDTAVYYCAADRLIGWRKTYYYWGQGTQVTVSS | high polyreactivity
37 | QVQLVESGGGLVQAGGSLRLSCAGSGSTFKKYPMGWYREATGKEREFVAAISRGGRTYYADSVKGRFTSSRDNAKTTVYLQMNSLNPEDTAVYYCAADTFAYQEVYYWGQGTQVTVSS | high polyreactivity
38 | QVQLVESGGGLVQAGGSLRLSCAGSGSTFRYYVLGWYRAAPGKDRVLVARITSAASTNYADSVKGRFTISRDNAKTTVNLQMNSLKPEDTPVYYCAADAYWIRSRFLYRIRYNYWGQGTQVTVSS | high polyreactivity
39 | QVQLVESGGGLVQAGGSLRLSCAGSGSTFVYNAMGWYRQAPGKERELVAAITAAGGRTYYADSVKGRFTISRDTAKNTVYLQMNSLKPEDTAVYYCYTVRPHGMDYWGQGTQVTVSS | high polyreactivity
40 | QVQLVESGGGLVQAGGSLRLSCAGSGSTFYRYALGWYRQAPGKEWEWVAVINSGCSTYYADSVKGRFTISRDNAKHTVYVQMNSMKPEDTAVSYCAAVRNQGGYVYGYGYWGQGTQVTVSS | high polyreactivity
41 | QVQLVESGGGLVQAGGSLRLSCAHSASNFGIYAMGWYRQAPGKERELVAPITWYGTSTYYADSVKGRFTISRDNSKNSVYLQMNSLKPEDTAVYYCATAYIQVSATFYEYEYWGQGTQVTVSS | low polyreactivity
42 | QVQLVESGGGLVQAGGSLRLSCAHSGSIFGQNAMGWYRHAPGKVRELVAAIRVSGGSTYYADSVKGRFTISRDNAKNTVYLQMNSLKPEDTAGYYCNARYRGYDGPITHGVTSYYWGQGTQVTVSS | low polyreactivity
43 | QVQLVESGGGLVQAGGSLRLSCAPCGIIFTDYAMGWYRQAPGKERELVAAISSGGGSTYYADSVKGRFTISRDNAKNTVYLQMNSLKPEDTAVYYCNARSPYYSYLLHAYRVFDYWGQGTQVNVSS | high polyreactivity

From the nanobody polyreactivity screen of Harvey et al. (2022)
